Experimental data taken from PMC3950706, “SUMOylation of the polycomb group protein L3MBTL2 facilitates repression of its target genes” (Nucleic Acids Research, 2013).
Where no end group is shown, it is not given here. Me3 = tri-methylation (trimethyl-lysine); Me2 = di-methylation (dimethyl-lysine)

Key:
Conditions in all cases: both partners purified
[1] = molecular target: T1, recombinant full-length His-L3MBTL2 (human, UniProt Q969R5 1-705); test: pull-down; histone peptides immobilised by a C-terminal cysteine on SulfoLink Coupling Resin; recombinant His-tagged proteins in 25 mM Tris-HCl pH 8, 150 mM NaCl, 2 mM EDTA, 0.5% NP 40, 1 h at 4°C (time course 5-60 min); bound protein detected by anti-His western blot; for SUMOylated L3MBTL2 the in vitro SUMOylation reaction was used
T1 construct: L3MBTL2 (Lethal(3) malignant brain tumour like 2), human, full length; also called 6xHis-L3MBTL2; His-L2; source: bacterially expressed, recombinant

[2] = molecular target: T2, 3xFLAG-L3MBTL2 K675/700R mutant (human, UniProt Q969R5 1-705, K675/700R | K675/700R); test: pull-down; histone peptides immobilised on resin; 3xFLAG-L3MBTL2 immunoprecipitated from N-ethylmaleimide-treated nuclear extracts of stably transfected HEK293 cells and then incubated with the peptides; bound protein detected by anti-FLAG western blot
T2 construct: L3MBTL2, human, with K675R and K700R; Associated proteins may be present after the immunoprecipitation; also called SUMOylation-defective L3MBTL2; K/R; source: HEK293, stably transfected, immunoprecipitated from N-ethylmaleimide-treated nuclear extracts

wild-type 3xFLAG-L3MBTL2 = molecular target: T3, wild-type 3xFLAG-L3MBTL2 (human, UniProt Q969R5 1-705); test: as above
T3 construct: L3MBTL2, human, wild type; The cellular wild-type protein is partly SUMOylated (SUMO2/3 at K675 and K700); Associated proteins may be present after the immunoprecipitation; also called FLAG-L3MBTL2 WT; 3xFLAG-L3MBTL2 WT; source: HEK293, stably transfected, immunoprecipitated from N-ethylmaleimide-treated nuclear extracts

[3] = molecular target: T4, 4xMBT-repeat domain of L3MBTL2 (human, UniProt Q969R5 170-619); test: pull-down; histone peptides immobilised by a C-terminal cysteine on SulfoLink Coupling Resin; recombinant His-tagged proteins in 25 mM Tris-HCl pH 8, 150 mM NaCl, 2 mM EDTA, 0.5% NP 40, 1 h at 4°C (time course 5-60 min); bound protein detected by anti-His western blot; for SUMOylated L3MBTL2 the in vitro SUMOylation reaction was used
T4 construct: L3MBTL2, human, isolated 4xMBT-repeat domain, aa 170-619; also called His-4xMBT

Measured: binding result

T2 sequence (Q969R5 other isoform, or with tags, fused parts or gaps K675/700R | K675/700R | K675/700R | K675/700R | mutant): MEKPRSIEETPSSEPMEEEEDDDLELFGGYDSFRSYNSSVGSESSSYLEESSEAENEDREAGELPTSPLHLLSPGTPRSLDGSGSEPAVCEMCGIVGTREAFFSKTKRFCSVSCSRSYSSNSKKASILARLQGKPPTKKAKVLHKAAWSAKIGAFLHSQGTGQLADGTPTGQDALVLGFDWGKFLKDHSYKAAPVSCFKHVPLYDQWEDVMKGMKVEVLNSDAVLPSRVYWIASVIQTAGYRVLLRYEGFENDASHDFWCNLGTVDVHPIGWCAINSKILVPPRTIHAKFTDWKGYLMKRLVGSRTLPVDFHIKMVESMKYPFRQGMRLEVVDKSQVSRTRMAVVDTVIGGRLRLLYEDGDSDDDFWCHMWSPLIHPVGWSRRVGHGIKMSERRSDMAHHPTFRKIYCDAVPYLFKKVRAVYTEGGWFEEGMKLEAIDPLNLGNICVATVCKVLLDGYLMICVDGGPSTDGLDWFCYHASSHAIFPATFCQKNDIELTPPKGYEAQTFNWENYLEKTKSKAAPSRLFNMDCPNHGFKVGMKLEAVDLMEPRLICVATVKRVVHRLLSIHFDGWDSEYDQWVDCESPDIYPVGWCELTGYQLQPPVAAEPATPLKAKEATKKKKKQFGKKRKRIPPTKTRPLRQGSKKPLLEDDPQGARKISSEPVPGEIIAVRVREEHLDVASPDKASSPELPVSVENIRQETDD
T3 sequence (Q969R5 whole entry): as the sequence (Q969R5 other isoform, or with tags, fused parts or gaps K675/700R | K675/700R | K675/700R | K675/700R | mutant) above, with R675K, R700K counted along it
T1 sequence (Q969R5 whole entry): as the sequence (Q969R5 other isoform, or with tags, fused parts or gaps K675/700R | K675/700R | K675/700R | K675/700R | mutant) above, with R675K, R700K counted along it
T4 sequence (Q969R5 170-619): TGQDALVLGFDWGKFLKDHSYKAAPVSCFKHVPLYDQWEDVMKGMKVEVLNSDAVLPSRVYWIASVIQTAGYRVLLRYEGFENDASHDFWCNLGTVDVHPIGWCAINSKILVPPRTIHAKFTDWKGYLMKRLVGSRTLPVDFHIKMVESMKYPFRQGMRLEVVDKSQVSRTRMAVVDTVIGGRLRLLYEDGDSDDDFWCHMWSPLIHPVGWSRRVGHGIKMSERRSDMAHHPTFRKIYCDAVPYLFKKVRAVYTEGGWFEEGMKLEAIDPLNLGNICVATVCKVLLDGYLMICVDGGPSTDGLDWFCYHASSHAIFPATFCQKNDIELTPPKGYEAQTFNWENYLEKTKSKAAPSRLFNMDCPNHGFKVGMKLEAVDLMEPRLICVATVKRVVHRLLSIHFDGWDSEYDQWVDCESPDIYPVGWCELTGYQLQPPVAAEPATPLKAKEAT

B1: histone H3 peptide (residues 1-15) di-methylated at K9 (peptide)
peptide: ARTKQTARKSTGGKAC
modifications: dimethyl-lysine at K9
notes: histone H3, residues 1-15; added C-terminal cysteine, by which the peptide was coupled to SulfoLink resin; also called H3K9me2
binds: [1] | [2] | wild-type 3xFLAG-L3MBTL2

B2: histone H4 peptide (residues 16-25) tri-methylated at K20 (peptide)
peptide: KRHRK(Me3)VLRDNC
notes: histone H4, residues 16-25; added C-terminal cysteine, by which the peptide was coupled to SulfoLink resin; also called H4K20me3
binds: [1] | [2] | wild-type 3xFLAG-L3MBTL2

B3: unmethylated histone H3 peptide (residues 1-15) (peptide)
peptide: ARTKQTARKSTGGKAC
notes: histone H3, residues 1-15; added C-terminal cysteine, by which the peptide was coupled to SulfoLink resin
binds: [1] | [2] | wild-type 3xFLAG-L3MBTL2

B4: histone H3 peptide (residues 1-15) mono-methylated at K9 (peptide)
peptide: ARTKQTARKSTGGKAC
modifications: monomethyl-lysine at K9
notes: histone H3, residues 1-15; added C-terminal cysteine, by which the peptide was coupled to SulfoLink resin; also called H3K9me1
binds: [1] | [2] | wild-type 3xFLAG-L3MBTL2

B5: unmethylated histone H4 peptide (residues 16-25) (peptide)
peptide: KRHRKVLRDNC
notes: histone H4, residues 16-25; added C-terminal cysteine, by which the peptide was coupled to SulfoLink resin; also called H4K20
binds: [1] | [2] | wild-type 3xFLAG-L3MBTL2

B6: histone H4 peptide (residues 16-25) mono-methylated at K20 (peptide)
peptide: KRHRK(Me)VLRDNC
notes: histone H4, residues 16-25; added C-terminal cysteine, by which the peptide was coupled to SulfoLink resin; also called H4K20me1
binds: [1] | [2] | wild-type 3xFLAG-L3MBTL2

B7: histone H3 peptide (residues 1-15) tri-methylated at K9 (peptide)
peptide: ARTKQTARKSTGGKAC
modifications: trimethyl-lysine at K9
notes: histone H3, residues 1-15; added C-terminal cysteine, by which the peptide was coupled to SulfoLink resin; also called H3K9me3
binds: [1] | [2] | wild-type 3xFLAG-L3MBTL2

B8: histone H4 peptide (residues 16-25) di-methylated at K20 (peptide)
peptide: KRHRK(Me2)VLRDNC
notes: histone H4, residues 16-25; added C-terminal cysteine, by which the peptide was coupled to SulfoLink resin; also called H4K20me2
binds: all assays above
